The results in this text go back to publication PMC2680354.

The target of assay [1] is rapamycin-mediated complex of FKBP-WASP VCA-His6 and mTOR-WASP VCA-FLAG. In words: pull-down.
The target of assay [2] is N-WASPC (autoinhibited C-terminal fragment of N-WASP) (UniProt O08816). As to the kind of experiment: ITC.
For assay [3] the target is unchanged.
Assay [4] addresses glutathione S-transferase (GST).

For orientation: pKd means the negative decadic logarithm of the Kd, by convention in mol/L. A higher pKd goes with a small Kd.

pKd: −log10 of the molar value.

Sequence of N-WASPC (autoinhibited C-terminal fragment of N-WASP) (O08816 whole entry, the tested form may be a part): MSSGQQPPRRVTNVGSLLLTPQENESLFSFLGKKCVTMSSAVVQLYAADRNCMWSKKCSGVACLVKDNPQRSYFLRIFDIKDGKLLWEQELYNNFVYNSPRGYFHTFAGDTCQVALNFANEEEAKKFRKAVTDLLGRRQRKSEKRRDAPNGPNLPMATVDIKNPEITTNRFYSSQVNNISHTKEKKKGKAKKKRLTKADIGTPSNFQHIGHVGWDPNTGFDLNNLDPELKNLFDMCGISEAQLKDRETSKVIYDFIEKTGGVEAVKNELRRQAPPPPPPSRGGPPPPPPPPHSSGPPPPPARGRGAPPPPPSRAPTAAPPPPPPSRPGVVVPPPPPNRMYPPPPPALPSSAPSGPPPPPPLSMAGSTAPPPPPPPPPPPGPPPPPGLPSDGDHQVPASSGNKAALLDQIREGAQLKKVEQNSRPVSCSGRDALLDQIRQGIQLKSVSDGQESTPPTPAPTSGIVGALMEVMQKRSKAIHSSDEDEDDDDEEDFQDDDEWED
Sequence of EspFu 2RC (identical repeats four and five) (P0DJ88 whole entry, the tested form may be a part): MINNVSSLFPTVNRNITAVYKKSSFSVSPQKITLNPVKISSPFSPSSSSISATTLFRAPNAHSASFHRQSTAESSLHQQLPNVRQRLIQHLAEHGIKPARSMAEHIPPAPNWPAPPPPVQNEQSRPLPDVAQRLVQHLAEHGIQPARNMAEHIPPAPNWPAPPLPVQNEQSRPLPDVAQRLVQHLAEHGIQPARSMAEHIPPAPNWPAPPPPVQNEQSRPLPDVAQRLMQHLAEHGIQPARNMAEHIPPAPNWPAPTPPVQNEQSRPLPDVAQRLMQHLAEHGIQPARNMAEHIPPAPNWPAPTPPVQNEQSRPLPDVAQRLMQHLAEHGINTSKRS
Sequence of glutathione S-transferase (GST) (natural protein) (P08515 2-218): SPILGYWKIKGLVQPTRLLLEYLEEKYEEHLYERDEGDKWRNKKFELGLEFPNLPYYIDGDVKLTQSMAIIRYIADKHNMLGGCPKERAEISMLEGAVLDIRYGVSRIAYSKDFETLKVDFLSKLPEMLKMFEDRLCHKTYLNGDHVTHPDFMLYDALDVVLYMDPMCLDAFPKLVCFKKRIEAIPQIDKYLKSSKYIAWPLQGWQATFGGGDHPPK
Sequence of EspFu 1R (a single repeat of EspFu, the fourth repeat) (P0DJ88 whole entry, the tested form may be a part): as the sequence (P0DJ88 whole entry, the tested form may be a part) above

Substance “Arp2/3 complex, endogenous in HEK293 cells (from UniProt P61158 1-418)” displayed a fold increase in precipitated Arp2/3 with rapamycin over no rapamycin in assay [1] of over 3 fold. Consider “EspFu 1R (a single repeat of EspFu, the fourth repeat) (from UniProt P0DJ88 1-337) (domain or fragment)”, for which the pKd in assay [2] was 7.46.

Consider “EspFu 2RC (identical repeats four and five) (from UniProt P0DJ88 1-337) (domain or fragment)”, for which the fold tighter affinity than 2R in assay [3] worked out at 3 fold. Moreover, the pKd in assay [2] is 7.41. With “glutathione S-transferase (GST) (natural protein)”, in assay [4], the pKd is over 9.00.
